Tests used:
[1] = molecular target: T1, Snf7 labeled with Alexa488 (yeast), P39929; assay: TIRF microscopy with counting of molecules by fluorescence intensity; conditions: remark: other sources report otherwise
T1 chain: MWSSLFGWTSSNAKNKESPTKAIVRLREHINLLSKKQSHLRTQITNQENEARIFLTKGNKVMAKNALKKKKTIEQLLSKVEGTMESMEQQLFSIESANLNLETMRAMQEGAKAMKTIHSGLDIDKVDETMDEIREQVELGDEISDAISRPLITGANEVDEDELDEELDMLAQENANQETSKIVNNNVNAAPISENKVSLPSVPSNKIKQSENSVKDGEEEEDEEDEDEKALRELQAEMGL

Snf7 (yeast), P39929 = molecular target: T2, Snf7 (yeast), P39929; assay: high-speed atomic force microscopy; conditions: remark: other sources report otherwise
T2 chain: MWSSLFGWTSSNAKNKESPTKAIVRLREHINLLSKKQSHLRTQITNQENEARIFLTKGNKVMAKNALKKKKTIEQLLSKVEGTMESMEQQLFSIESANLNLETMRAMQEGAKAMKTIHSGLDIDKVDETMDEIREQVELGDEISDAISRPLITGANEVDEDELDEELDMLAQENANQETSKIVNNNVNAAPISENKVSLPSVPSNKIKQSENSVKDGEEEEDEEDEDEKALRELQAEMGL

B1: Snf7 labeled with Alexa488, P39929 1-240 (natural protein)
chain: MWSSLFGWTSSNAKNKESPTKAIVRLREHINLLSKKQSHLRTQITNQENEARIFLTKGNKVMAKNALKKKKTIEQLLSKVEGTMESMEQQLFSIESANLNLETMRAMQEGAKAMKTIHSGLDIDKVDETMDEIREQVELGDEISDAISRPLITGANEVDEDELDEELDMLAQENANQETSKIVNNNVNAAPISENKVSLPSVPSNKIKQSENSVKDGEEEEDEEDEDEKALRELQAEMGL
modifications: here or on the partner: Alexa488 label (TFP-Alexa-488), site not stated; Alexa488 label (TFP-Alexa-488), site not stated
- stoichiometry N [1]: 50 monomers

B2: Snf7, P39929 1-240 (natural protein)
chain: MWSSLFGWTSSNAKNKESPTKAIVRLREHINLLSKKQSHLRTQITNQENEARIFLTKGNKVMAKNALKKKKTIEQLLSKVEGTMESMEQQLFSIESANLNLETMRAMQEGAKAMKTIHSGLDIDKVDETMDEIREQVELGDEISDAISRPLITGANEVDEDELDEELDMLAQENANQETSKIVNNNVNAAPISENKVSLPSVPSNKIKQSENSVKDGEEEEDEEDEDEKALRELQAEMGL
- filament growth rate (subunits.s^−1.μM^−1) (Snf7 (yeast), P39929): 3

From paper PMC4644223
